Positions count from the first letter of the chain named. Names and notes keep the numbering of the source.
B1: SEQ ID NO: 17: Reference EGC synthase, E351S, D314Y, A153T, Δ1-30, N-term. His-Tag; Rhodococcus sp. strain M-777 (protein)
chain: MGSSHHHHHHSSGLVPRGSHMSGSGSGSGTALTPSYLKDDDGRSLILRGFNTASSAKSAPDGMPQFTEADLAREYADMGTNFVRFLISWRSVEPAPGVYDQQYLDRVEDRVGWYAERGYKVMLDMHQDVYSGAITPEGNSGNGTGAIGNGAPAWATYMDGLPVEPQPRWELYYIQPGVMRAFDNFWNTTGKHPELVEHYAKAWRAVADRFADNDAVVAYDLMNEPFGGSLQGPAFEAGPLAAMYQRTTDAIRQVDQDTWVCVAPQAIGVNQGLPSGLTKIDDPRAGQQRIAYCPHLYPLPLDIGYGHEGLARTLTDVTIDAWRANTAHTARVLGDVPIILGSFGLDTTLPGARDYIERVYGTAREMGAGVSYWSSDPGPWGPYLPDGTQTLLVDTLNKPYPRAVAGTPTEWSSTSDRLQLTIEPDAAITAPTEIYLPEAGFPGDVHVEGADVVGWDRQSRLLTVRTPADSGNVTVTVTPAA
modifications: N-terminal His-tag
B2: SEQ ID NO: 4: EGC synthase, E350S, Δ1-24, N-term. His-Tag; Rhodococcus sp. AQ5-07 (protein)
chain: MGHHHHHHMQGSLPTSGSAGGTDVPPSYLTDDAGRSLILRGFNTASSAKSEPEPGQYDQEYLDRVEDRVSWYAERGYKVMLDMHQDVYSGAITPEGNSGNGAGNIGNGAPAWATYMDGLPVSPQDRWELYYIQPGVMRAFDNFWNTTGQHPELVEHYANAWQAVAERFAGNDTVVAYDLMNEPWGGSLQGPAFEGGPLAALYQRTTNAIREVDQDSWVCVAPQAVGVNQGVPSGLTKINDPRAGEQRIAYCPHLYPLPLDLGDGYSGLSRTLTDATIDTWRDSVEHIAGNVLGGVPVILASFGLDTTLPGATDYIDRVYATARELGAGVSYWSSDPGPWGPYLPDGTQTLLVDTLNRPYPRAVAGTPTEWSSSVDRLQLTFTPNPAVTAPTEIYLPESGFPGGVDVAGADIVNWNPQSRLLTVEAPDGMPKFTEADLEREHADMGTNFVRFLISWRSVTADDAGPVTVTVTPAS
modifications: N-terminal His-tag
B3: SEQ ID NO: 5: EGC synthase, E350S, Δ146-152; Rhodococcus sp. AQ5-07 (protein)
chain: MRRIPLSALIVAGSLILGGGIAAAQGSLPTSGSAGGTDVPPSYLTDDAGRSLILRGFNTASSAKSAPDGMPKFTEADLEREHADMGTNFVRFLISWRSVEPEPGQYDQEYLDRVEDRVSWYAERGYKVMLDMHQDVYSGAITPEGNIGNGAPAWATYMDGLPVSPQDRWELYYIQPGVMRAFDNFWNTTGQHPELVEHYANAWQAVAERFAGNDTVVAYDLMNEPWGGSLQGPAFEGGPLAALYQRTTNAIREVDQDSWVCVAPQAVGVNQGVPSGLTKINDPRAGEQRIAYCPHLYPLPLDLGDGYSGLSRTLTDATIDTWRDSVEHIAGNVLGGVPVILASFGLDTTLPGATDYIDRVYATARELGAGVSYWSSDPGPWGPYLPDGTQTLLVDTLNRPYPRAVAGTPTEWSSSVDRLQLTFTPNPAVTAPTEIYLPESGFPGGVDVAGADIVNWNPQSRLLTVETADDAGPVTVTVTPAS
B4: SEQ ID NO: 8: EGC synthase, E350S, D312Y, Δ1-24, N-term. His-Tag, Δ146-152; Rhodococcus sp. AQ5-07 (protein)
chain: MGHHHHHHMQGSLPTSGSAGGTDVPPSYLTDDAGRSLILRGFNTASSAKSEPEPGQYDQEYLDRVEDRVSWYAERGYKVMLDMHQDVYSGAITPEGNIGNGAPAWATYMDGLPVSPQDRWELYYIQPGVMRAFDNFWNTTGQHPELVEHYANAWQAVAERFAGNDTVVAYDLMNEPWGGSLQGPAFEGGPLAALYQRTTNAIREVDQDSWVCVAPQAVGVNQGVPSGLTKINDPRAGEQRIAYCPHLYPLPLDLGYGYSGLSRTLTDATIDTWRDSVEHIAGNVLGGVPVILASFGLDTTLPGATDYIDRVYATARELGAGVSYWSSDPGPWGPYLPDGTQTLLVDTLNRPYPRAVAGTPTEWSSSVDRLQLTFTPNPAVTAPTEIYLPESGFPGGVDVAGADIVNWNPQSRLLTVEAPDGMPKFTEADLEREHADMGTNFVRFLISWRSVTADDAGPVTVTVTPAS
modifications: N-terminal His-tag
B5: SEQ ID NO: 18: EGC synthase, E351S, D314Y, Δ1-30, N-term. His-Tag, Δ148-154; Rhodococcus sp. strain M-777 (protein)
chain: MGSSHHHHHHSSGLVPRGSHMSGSGSGSGTALTPSYLKDDDGRSLILRGFNTASSAKSAPDGMPQFTEADLAREYADMGTNFVRFLISWRSVEPAPGVYDQQYLDRVEDRVGWYAERGYKVMLDMHQDVYSGAITPEGAIGNGAPAWATYMDGLPVEPQPRWELYYIQPGVMRAFDNFWNTTGKHPELVEHYAKAWRAVADRFADNDAVVAYDLMNEPFGGSLQGPAFEAGPLAAMYQRTTDAIRQVDQDTWVCVAPQAIGVNQGLPSGLTKIDDPRAGQQRIAYCPHLYPLPLDIGYGHEGLARTLTDVTIDAWRANTAHTARVLGDVPIILGSFGLDTTLPGARDYIERVYGTAREMGAGVSYWSSDPGPWGPYLPDGTQTLLVDTLNKPYPRAVAGTPTEWSSTSDRLQLTIEPDAAITAPTEIYLPEAGFPGDVHVEGADVVGWDRQSRLLTVRTPADSGNVTVTVTPAA
modifications: N-terminal His-tag
B6: SEQ ID NO: 15: EGC synthase, E339S, Δ1-26; Rhodococcus hoagii 103S (SEQ ID NO: 14) (protein)
chain: MAPPATPITTLQADGTHLVDGYGRTVLLHGVNNVDKDAPYLPAGETLTPQDIDILVRHGFNTVRLGTSFDALMPQRGQIDEAYLDRLTGVVDALTARGMHVLLDNHQDGLSKAWGGNGFPEWAIESRPREWEPNPGFPLYYLMPSLNAGWDEVWGNTHGALDHLGTALGALAERVEGKPGVMGIELLNEPWPGSRFLSCFPNGCPDFDRTYQAAMQKLTDAVRAQNPTIPVYWEPNVTWNQMMPSNLFAPPVTPALTTADVVFAPHDYCIPSQLAIYLGLPQALRGLCVPQQDLTWSNIDAITERANVPTVITSFGDGDPTVLKNTLARADERFIGWQYWHFGAGNATDPFLGEVGRQLVRTYPQATAGEPGRMIFDADNGDFAYRFTPRAATRPTEIFVSDLHYPDGYAVQVDGGQVTSAPGARIVTVVADGSGPVTVKINRPGSAGAEVPDGPIETSSSGSSGSS
B7: SEQ ID NO: 6: EGC synthase, E350S, Δ1-24, N-term. His-Tag, Δ146-152; Rhodococcus sp. AQ5-07 (protein)
chain: B4 chain with Y256D
modifications: N-terminal His-tag

assay: Enzymatic conversion of lactosyl sphingoid bases with β-galactosidase; format: biochemical; conditions: within about 48 to about 72 hours at about 37° C.; 1 M NaOAc pH 5.0, 5 g/L β-cyclodextrin, 5 g/L enzyme
Description: Enzymatic reactions were performed in 1 M NaOAc buffer (pH set to 5.0). A typical reaction mixture contained 50-100 g/L of lactosyl sphingoid base (synthesised according to the general procedure of Example 3 or Example 5), 5 g/L of β-cyclodextrin, 5 g/L of β-galactosidase (e.g. from A. oryzae). Typically, the reaction proceeds up to 99% conversion within about 48 to about 72 hours at about 37° C. and continuous stirring. The enzymatic reaction was followed by LCMS analysis (for methods and conditions see Example 9).
Samples (25 μL) were taken from reaction mixtures, mixed with DMSO (950 μL) and subjected to centrifugation (16.000 rpm, 5 min) and analyzed with a Shimadzu ECO 2020 LC system coupled with a Shimadzu LCMS-2020 system. The HPLC analysis was performed using a Merck Ascentis Express RP-Amide column (15 cm×4.6 mm, 2.7 μm). For analysis of compounds the eluent consisted of solvent D (2 mM ammonium formate, […], 75% v/v MeOH, 25% v/v ACN)-solvent C (2 mM formic acid in filtered ddH2O), and the following gradient was applied as stated in the table below. The flow rate was 1 mL/min. The MS analysis was performed under the following conditions: ESI positive ionization, vaporizer temperature 300° C.; LC-MS mode, 1:1 split of flow; ESI negative ionization, vaporizer temperature 300° C.; LC-MS mode, 1:1 split of flow.

With β-galactosidase the conversion was “up to 99%”.

assay: Km determination of EGC synthases with lactosyl fluoride and sphingosine (HPLC-ELSD); format: biochemical; conditions: Donor Lac-F, acceptor sphingosine; cell-free extract
Description: The assay mixture contained 1 M sodium acetate buffer at pH 5.5, 20 mg/mL sphingosine-base and EGCS enzyme. As a reference, EGC synthase of SEQ ID NO:17 was used. Six different concentrations of lactosyl fluoride (Lac-F) ranging from 5 mg/mL to 164 mg/mL were assayed. From every assay mixture, four time points were collected by quenching the reaction with 19× volume of DMSO. The samples were analyzed by HPLC-ELSD analysis and conversion rates were determined by linear regression.

Going from B1 to B2, the “U/mg CFE” value rises from 0.074 U/mg CFE to 0.20 U/mg CFE.

Compared with B3, B4 is lower in “U/mg CFE” value: 0.61 U/mg CFE for the first, 0.60 U/mg CFE for the second.

same assay, conditions: relative to reference SEQ ID NO: 17; donor Lac-F, acceptor sphingosine

First: B1
Second: B2
The “Fold improvement to reference” value of the first is lower: 1.0 for the first, 2.7 for the second.

First: B3
Second: B4
The “Fold improvement to reference” value of the first is higher: 8.2 for the first, 8.1 for the second.

assay: Production of lactosyl-6-hydroxysphingosine: conversion rates of different enzymes; format: biochemical; conditions: Time 1 h; 30 mg/mL 6-OH-Sph, 300 mg/mL Lac-F, 1 M NaOAc, pH 6.0, 37° C.
Description: Reaction contained: 30 mg/mL 6-OH-Sph, 300 mg/mL Lac-F, enzyme, 1 M NaOAc.
Reactions were executed at pH 6.0, 37° C. and 1500 rpm stirring. Product analysis was done by ELSD (% rel. conversion) and LC-MS using standard conditions for Lac-Sph analysis.

First: B1
Second: B5
The “Conversion [% ELSD area product]” value of the first is higher: 99.4 % ELSD area product for the first, 99.3 % ELSD area product for the second.

Compared with B6, B4 is higher in “Conversion [% ELSD area product]” value: 3.7 % ELSD area product for the first, 100 % ELSD area product for the second.

With B7 the “Conversion [% ELSD area product]” value was 100 % ELSD area product.

same assay, conditions: Time 2 h; 30 mg/mL 6-OH-Sph, 300 mg/mL Lac-F, 1 M NaOAc, pH 6.0, 37° C.

Compared with B1, B5 is lower in “Conversion [% ELSD area product]” value: 100 % ELSD area product for the first, 99.8 % ELSD area product for the second.

First: B6
Second: B4
The “Conversion [% ELSD area product]” value of the first is lower: 9.1 % ELSD area product for the first, 100 % ELSD area product for the second.

In the case of B7, the “Conversion [% ELSD area product]” value is reported as 100 % ELSD area product.
